# Assay results reported in US20220332804A1 (CSL INNOVATION, published 2022).
# Where a chain is given by its changes, count along the chain named.
# T1: human C2 V418A (human, UniProt P06681 21-752)
# T1 sequence: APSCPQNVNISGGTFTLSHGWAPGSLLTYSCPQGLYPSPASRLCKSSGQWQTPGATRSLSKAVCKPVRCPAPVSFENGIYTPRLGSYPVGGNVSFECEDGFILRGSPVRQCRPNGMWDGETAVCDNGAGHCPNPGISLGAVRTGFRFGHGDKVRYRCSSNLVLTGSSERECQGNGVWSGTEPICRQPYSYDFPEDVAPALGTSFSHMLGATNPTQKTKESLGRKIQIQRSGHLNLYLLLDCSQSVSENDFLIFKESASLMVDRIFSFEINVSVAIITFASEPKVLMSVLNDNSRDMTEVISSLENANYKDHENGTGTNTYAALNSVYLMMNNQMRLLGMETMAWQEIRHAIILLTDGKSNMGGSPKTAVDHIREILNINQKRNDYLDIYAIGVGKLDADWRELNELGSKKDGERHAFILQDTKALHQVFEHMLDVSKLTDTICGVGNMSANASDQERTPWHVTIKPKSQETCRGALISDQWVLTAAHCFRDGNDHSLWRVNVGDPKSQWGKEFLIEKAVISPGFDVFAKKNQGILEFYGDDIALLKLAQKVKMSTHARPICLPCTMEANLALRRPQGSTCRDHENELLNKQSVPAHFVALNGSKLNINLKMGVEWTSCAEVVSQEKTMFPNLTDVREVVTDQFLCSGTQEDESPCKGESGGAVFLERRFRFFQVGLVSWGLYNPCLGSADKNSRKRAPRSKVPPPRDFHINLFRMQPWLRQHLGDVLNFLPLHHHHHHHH
# T2: human C2 N327A (human, UniProt P06681 21-752)
# T2 sequence: T1 sequence with N307A, A398V
# T3: human C2 S469A (human, UniProt P06681 21-752)
# T3 sequence: T1 sequence with A398V, S449A
# T4: human C2 M316A (human, UniProt P06681 21-752)
# T4 sequence: T1 sequence with M296A, A398V
# B1: RF16-242 (antibody, human IgG4 S228P, lambda, V domains shown)
# VH: EVQLLQSGAEVKKPGESLKISCKGSGYSFTSYWIGWVRQMPGKGLEWMGIIYPGDSDTRYSPSFQGQVTISADKSISTAYLQWSSLKASDTAMYYCARRGHYGDYFDYWGQGTLVTVSS
# VL: SYELTQPPSVSVSPGQTARITCSGDALPKKYAYWYHQKSGQAPVLVIYEDRRRPSEIPERFSGSSSGTMATLTITGAQVEDEGVYFCYSRDRAGNQRVFGGGTQLTVLG
# notes: pH-dependent anti-C2 antibody from a phage display library
# Columns and labels:
# Assay in all cases: SPR, antibody captured, C2 as analyte;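 note: biacore at 37 °C, anti-C2 mAbs held by immobilised goat anti-human IgG, C2 alanine or serine mutants injected, double-referenced sensorgrams fitted to a 1:1 kinetic or steady-state model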
# [1] = biological target: T1, human C2 V418A
# [2] = biological target: T2, human C2 N327A
# [3] = biological target: T3, human C2 S469A
# [4] = biological target: T4, human C2 M316A
binder,measurement,setting,value
B1,Kd,[1],0.0068 µM
same,Kd,[2],0.0375 µM
same,Kd,[3],0.0214 µM
same,Kd,[4],0.0101 µM
